From patent publication EP2112166B1

How the values were obtained:
[1] = biological target: CTLA-4-IgG1 fusion protein (made in-house) (human) (UniProt P16410); assay: BIAcore; CTLA-4-Ig on chip, 457.2 RU
[2] = biological target: CTLA-4-IgG1 fusion protein (made in-house) (human) (UniProt P16410); assay: BIAcore; CTLA-4-Ig on chip, 878.7 RU
CTLA-4-Ig(G4) (Repligen) [3] = biological target: CTLA-4-Ig(G4) (Repligen) (UniProt P16410); assay: competition ELISA: CTLA-4-Ig(G4) binding to coated B7.2-Ig(G1)
[4] = biological target: CTLA-4-IgG1 fusion protein (made in-house) (human) (UniProt P16410); assay: BIAcore; CTLA-4-Ig on chip, 504.5 RU
CTLA-4-Ig(G4) (Repligen) [5] = biological target: CTLA-4-Ig(G4) (Repligen) (UniProt P16410); assay: competition ELISA: CTLA-4-Ig(G4) binding to coated B7.1-Ig(G1)

B1: 4.10.2 antibody (antibody, from another filing, human IgG2, V domains shown)
VH: GVVQPGRSLRLSCVASGFIFSSHGIHWVRQAPGKGLEWVAVIWYDGRNKDYADSVKGRFTISRDNSKNTLYLQMNSLRAEDTAVYYCARVAPLGPLDYWGQGTLVTVSS
VL: SPGTLSLSPGERATLSCRASQSISSNFLAWYQQKPGQAPRLLIYRPSSRATGIPDSFSGSGSGTDFTLTISRLEPEDFALYYCQQYGTSPFTFGPGTKVDIKR
- Ka [1]: 1.4e+09 M⁻¹
- Kd [1]: 0.721 nM
- koff [1]: 0.000505 s⁻¹
- kon [1]: 700000 M⁻¹ s⁻¹
- Ka [2]: 3.9e+09 M⁻¹
- Kd [2]: 0.254 nM
- koff [2]: 0.000253 s⁻¹
- kon [2]: 1e+06 M⁻¹ s⁻¹
- IC50 (CTLA-4-Ig(G4) (Repligen) [3]): 1.5 nM
- Ka [4]: 2.2e+09 M⁻¹
- Kd [4]: 0.455 nM
- koff [4]: 0.00043 s⁻¹
- kon [4]: 940000 M⁻¹ s⁻¹
- IC50 (CTLA-4-Ig(G4) (Repligen) [5]): 3.39 nM
